Starred links: 1 amine or outer side, 2 acyl side, 3 side chain; linkers in the order of their positions; H or OH if unused. Positions of bridges follow the written chain, without caps; N, C: chain ends. Non-standard residues stand in square brackets, D forms with d. No end group written: not given here. BCN = bicyclo[6.1.0]non-4-yn-9-ylmethyl carbonate as carbamate, click handle; TATA = O=C(CC[*:1])N1CN(C(=O)CC[*:2])CN(C(=O)CC[*:3])C1; tBuAla = CC(C)(C)C[C@H](N)C(=O)O; Nle = CCCC[C@H](N)C(=O)O; PYA = propargyl-acid
B1: BCY8582 (peptide)
peptide: XACIEEGQYCFADPYXCA
modifications: not fully specified; (PYA)-A-CiIEEGQYCiiF[D-A]DPY[Nle]Ciii-A; Cys on TATA scaffold
B2: BCY8583 (peptide)
peptide: XACIEEGQYCFADPYXCA
modifications: not fully specified; (PYA)-A-CiIEEGQYCiiF[D-A]DPY[Nle]Ciii-A; Cys on TATA scaffold
B3: BCY8584 (peptide)
peptide: XACIEEGQYCFADPYXCA
modifications: not fully specified; (PYA)-A-CiIEEGQYCiiF[D-A]DPY[Nle]Ciii-A; Cys on TATA scaffold
B4: BCY8151 (peptide)
peptide: Ac-ACIEEGK(BCN)YCFADPY[Nle]CA
modifications: linker 2-9-16 via TATA; not fully specified; also: trimer of three peptide units on central hinge B (TCA) via spacer S1A n=10
B5: BCY8150 (peptide)
peptide: Ac-ACIEK(BCN)GQYCFADPY[Nle]CA
modifications: linker 2-9-16 via TATA; not fully specified; also: tetramer of four peptide units on central hinge A (TET) via spacer S1A n=10
B6: BCY8581 (peptide)
peptide: XACIEEGQYCFADPYXCA
modifications: not fully specified; (PYA)-A-CiIEEGQYCiiF[D-A]DPY[Nle]Ciii-A; Cys on TATA scaffold
B7: BCY7845 (peptide)
peptide: Ac-ACIEEGK(PYA)YCFADPY[Nle]CA
modifications: linker 2-9-16 via TATA; not fully specified; also: tetramer of four peptide units on central hinge A (TET) via spacer S1A n=10
B8: BCY8935 (peptide)
peptide: XACIEEGQYCFXDPYXCA
modifications: (PYA)-A-CiIEEGQYCiiF[D-A]DPY[Nle]Ciii-A; Ci, Cii, Ciii cyclised on TATA
notes: Bicyclic peptide monomer; also called Monomer 10A
B9: BCY8925 (peptide)
peptide: Ac-ACIE[dK](PYA)GQYCF[dA]DPY[Nle]CA
modifications: linker 2-9-16 via TATA
notes: Bicyclic peptide monomer; also called Monomer 13A
B10: BCY8926 (peptide)
peptide: Ac-ACIEK(PYA)GQYCF[dA]DPY[Nle]CA
modifications: linker 2-9-16 via TATA
notes: Bicyclic peptide monomer; also called Monomer 14A
B11: BCY7748 (peptide)
peptide: ACIEEGQYCFADPYXCA
modifications: Ac-A-CiIEEGQYCiiFADPYK(PYA)Ciii-A; Ci, Cii, Ciii cyclised on TATA
notes: Bicyclic peptide monomer; also called Monomer 9A
B12: BCY8927 (peptide)
peptide: Ac-C[tBuAla]PK(PYA)[dA]PYCFADPY[Nle]CA
modifications: linker 1-8-15 via TATA
notes: Bicyclic peptide monomer; also called Monomer 11A
B13: BCY8141 (peptide)
peptide: XACIEEGQYCFADPYXCA
modifications: (BCN)-A-CiIEEGQYCiiFADPY(Nle)Ciii-A; Ci, Cii, Ciii cyclised on TATA
notes: Bicyclic peptide monomer; also called Monomer 1-BCN
B14: BCY8142 (peptide)
peptide: Ac-ACIEK(BCN)GQYCFADPY[Nle]CA
modifications: linker 2-9-16 via TATA
notes: Bicyclic peptide monomer; also called Monomer 4-BCN
B15: BCY8143 (peptide)
peptide: Ac-ACIEEGK(BCN)YCFADPY[Nle]CA
modifications: linker 2-9-16 via TATA
notes: Bicyclic peptide monomer; also called Monomer 6-BCN
B16: BCY8144 (peptide)
peptide: Ac-ACIEEGQYCK(BCN)ADPY[Nle]CA
modifications: linker 2-9-16 via TATA
notes: Bicyclic peptide monomer; also called Monomer 7-BCN
B17: BCY8097 (peptide)
peptide: ACIEEGQYCFADPYXCA
modifications: Ac-A-CiIEEGQYCiiFADPYK(BCN)Ciii-A; Ci, Cii, Ciii cyclised on TATA
notes: Bicyclic peptide monomer; also called Monomer 9-BCN
B18: BCY7740 (peptide)
peptide: XACIEEGQYCFADPYXCA
modifications: (PYA)-A-CiIEEGQYCiiFADPY(Nle)Ciii-A; Ci, Cii, Ciii cyclised on TATA
notes: Bicyclic peptide monomer; also called Monomer 1A
B19: BCY7741 (peptide)
peptide: ACIEEGQYCFADPYXCX
modifications: Ac-A-CiIEEGQYCiiFADPY(Nle)Ciii-Dap(PYA); Ci, Cii, Ciii cyclised on TATA
notes: Bicyclic peptide monomer; also called Monomer 2A
B20: BCY7743 (peptide)
peptide: Ac-ACIEK(PYA)GQYCFADPY[Nle]CA
modifications: linker 2-9-16 via TATA
notes: Bicyclic peptide monomer; also called Monomer 4A
B21: BCY7745 (peptide)
peptide: Ac-ACIEEGK(PYA)YCFADPY[Nle]CA
modifications: linker 2-9-16 via TATA
notes: Bicyclic peptide monomer; also called Monomer 6A
B22: BCY7746 (peptide)
peptide: Ac-ACIEEGQYCK(PYA)ADPY[Nle]CA
modifications: linker 2-9-16 via TATA
notes: Bicyclic peptide monomer; also called Monomer 7A
B23: BCY7747 (peptide)
peptide: Ac-ACIEEGQYCFADK(PYA)Y[Nle]CA
modifications: linker 2-9-16 via TATA
notes: Bicyclic peptide monomer; also called Monomer 8A
B24: BCY7742 (peptide)
peptide: Ac-ACIK(PYA)EGQYCFADPY[Nle]CA
modifications: linker 2-9-16 via TATA
notes: Bicyclic peptide monomer; also called Monomer 3A
B25: BCY8095 (peptide)
peptide: Ac-ACIK(BCN)EGQYCFADPY[Nle]CA
modifications: linker 2-9-16 via TATA
notes: Bicyclic peptide monomer; also called Monomer 3-BCN

Target: T1, CD137 on Jurkat reporter cells (Promega) (UniProt Q07011 24-255, limits assumed)
T1 sequence (Q07011 24-255 limits assumed): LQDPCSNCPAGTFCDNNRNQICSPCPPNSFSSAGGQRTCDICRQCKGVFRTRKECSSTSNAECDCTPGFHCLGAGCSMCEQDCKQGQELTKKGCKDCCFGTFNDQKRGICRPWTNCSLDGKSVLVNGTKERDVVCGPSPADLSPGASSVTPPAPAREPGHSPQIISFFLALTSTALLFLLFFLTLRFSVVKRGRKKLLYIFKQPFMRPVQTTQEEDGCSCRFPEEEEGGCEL
Experiment: cell-based or functional assay

Binder | Fold Induction over Background | Average Fold EC50 Improvement relative to CD137L | Average Relative Fold Induction relative to CD137L
B1 | < 2 fold | – | –
B2 | – | 0.031 fold | 3.14 fold
B3 | < 2 fold | – | –
Ac-ACIEK(PYA)GQYCF[dA]DPY[Nle]CA (linker 2-9-16 via TATA; not fully specified) [BCY8937] | < 2 fold | – | –
B4 | – | 213 fold | 0.49 fold
XACIEEGQYCFADPYXCA (not fully specified; (BCN)-A-CiIEEGQYCiiFADPY(Nle)Ciii-A; Cys on TATA scaffold) [BCY8149] | – | 140 fold | 0.93 fold
B5 | – | 4.14 fold | 0.77 fold
B6 | < 2 fold | – | –

Target: T1, CD137 on Jurkat reporter cells (Promega)
Experiment: cell-based or functional assay
Remark: another data set of the same source

Binder | Fold Induction over Background | Average Fold EC50 Improvement relative to BCY7845 | Average Relative Fold Induction relative to BCY7845 | Average EC50 | Average fold induction
Ac-C[tBuAla]PE[dK](PYA)PYCFADPY[Nle]CA (linker 1-8-15 via TATA; not fully specified) [BCY8948] | < 2 fold | – | – | – | –
Ac-ACIEK(PYA)GQYCFADPY[Nle]CA (linker 2-9-16 via TATA; not fully specified) [BCY8957] | < 2 fold | – | – | – | –
Ac-ACIEK(PYA)GQYCFADPY[Nle]CA (linker 2-9-16 via TATA; not fully specified) [BCY8961] | < 2 fold | – | – | – | –
Ac-ACIEK(PYA)GQYCFADPY[Nle]CA (linker 2-9-16 via TATA; not fully specified) [BCY8962] | < 2 fold | – | – | – | –
Ac-ACIEK(PYA)GQYCFADPY[Nle]CA (linker 2-9-16 via TATA; not fully specified) [BCY8965] | < 2 fold | – | – | – | –
Ac-C[tBuAla]PE[dK](PYA)PYCFADPY[Nle]CA (linker 1-8-15 via TATA; not fully specified) [BCY8947] | – | 1.33 fold | 0.62 fold | – | –
Ac-ACIEK(PYA)GQYCFADPY[Nle]CA (linker 2-9-16 via TATA; not fully specified) [BCY8959] | < 2 fold | – | – | – | –
Ac-ACIEK(PYA)GQYCF[dA]DPY[Nle]CA (linker 2-9-16 via TATA; not fully specified) [BCY9113] | < 2 fold | – | – | – | –
B7 | – | – | – | 0.57 nM | 6.3 fold

Target: T2, Recombinant human CD137 (R&D systems), biotinylated (human, UniProt Q07011 24-186, biotinylated with EZ-Link Sulfo-NHS-LC-LC-Biotin)
T2 construct: Bought protein; Captured on a streptavidin chip; also called human CD137 protein; 4-1BB
T2 sequence (Q07011 24-186 limits assumed): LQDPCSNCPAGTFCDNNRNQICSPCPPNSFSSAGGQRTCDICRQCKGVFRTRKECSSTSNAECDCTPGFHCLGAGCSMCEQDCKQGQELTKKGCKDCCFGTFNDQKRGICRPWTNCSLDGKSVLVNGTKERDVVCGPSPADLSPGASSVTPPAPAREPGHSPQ
Experiment: SPR (Biacore), biotinylated human CD137 captured on streptavidin chip

Binder | binding result
B8 | no binding (tested: No binding up to 5 µM)
B9 | no binding (tested: No binding up to 5 µM)
B10 | no binding (tested: No binding up to 5 µM)

Target: T2, Recombinant human CD137 (R&D systems), …
Experiment: SPR (Biacore), biotinylated human CD137 captured on streptavidin chip, peptide as analyte, 25°C
Procedure: (§1) Biacore experiments were performed to determine kₐ (M⁻¹s⁻¹), kd (s⁻¹), KD (nM) values of monomeric peptides binding to human CD137 protein. […] The protein was desalted to remove uncoupled biotin using spin columns into PBS.
(§2) For analysis of peptide binding, a Biacore T200 or a Biacore 3000 instrument was used with a XanTec CMD500D chip. Streptavidin was immobilized on the chip using standard amine-coupling chemistry at 25° C. with HBS-N(10 mM HEPES, 0.15 M NaCl, pH 7.4) as the running buffer. Briefly, the carboxymethyl dextran surface was activated with a 7 min injection of a 1:1 ratio of 0.4 M 1-ethyl-3-(3-dimethylaminopropyl) carbodiimide hydrochloride (EDC)/0.1 M N-hydroxy succinimide (NHS) at a flow rate of 10 μl/min. For capture of streptavidin, the protein was diluted to 0.2 mg/ml in 10 mM sodium acetate (pH 4.5) and captured by injecting 120 μl of onto the activated chip surface. Residual activated groups were blocked with a 7 min injection of 1 M ethanolamine (pH 8.5) and biotinylated CD137 captured to a level of 270-1500 RU. Buffer was changed to PBS/0.05% Tween 20 and a dilution series of the peptides was prepared in this buffer with a final DMSO concentration of 0.5%. The top peptide concentration was 500 nM with 6 further 2-fold or 3-fold dilutions. The SPR analysis was run at 25° C. at a flow rate of 90 μl/min with 60 seconds association and 900 seconds dissociation. After each cycle a regeneration step (10 μl of 10 mM glycine pH 2) was employed. Data were corrected for DMSO excluded volume effects as needed. All data were double-referenced for blank injections and reference surface using standard processing procedures and data processing and kinetic fitting were performed using Scrubber software, version 2.0c (BioLogic Software). Data were fitted using simple 1:1 binding model allowing for mass transport effects where appropriate.

Binder | Kd
B11 | 264 nM
B12 | 12.3 nM
Ac-C[tBuAla]PE[dK](PYA)PYCFADPY[Nle]CA (linker 1-8-15 via TATA, also called Monomer 12A) [BCY8928] | 11.4 nM
B13 | 57.8 nM
B14 | 321 nM
B15 | 112 nM
B16 | 66.7 nM
B17 | 99.4 nM
B18 | 88 nM
B19 | 122 nM
B20 | 101 nM
B21 | 63.1 nM
B22 | 260 nM
B23 | 361 nM

Target: T2, Recombinant human CD137 (R&D systems), …
Experiment: SPR (Biacore), biotinylated human CD137 captured on streptavidin chip, peptide as analyte, 25°C; BCY7742 (Monomer 3A), a separate monomer number from BCY8095
Procedure: as §1
as §2, with “After each cycle a regeneration step (10 μl of 10 mM glycine pH 2) was employed. Data were corrected for DMSO excluded volume effects as needed. All data were double-referenced for blank injections and reference surface using standard processing procedures and data processing and kinetic fitting were performed using Scrubber software, version 2.0c (BioLogic Software). Data were fitted using simple 1:1 binding model allowing for mass transport effects where appropriate.” left out

Binder | Kd
B24 | 855 nM

Target: T2, Recombinant human CD137 (R&D systems), …
Experiment: SPR (Biacore), biotinylated human CD137 captured on streptavidin chip, peptide as analyte, 25°C; BCY8095 (Monomer 3-BCN), a separate monomer number from BCY7742
Procedure: as §1
as §2, with “After each cycle a regeneration step (10 μl of 10 mM glycine pH 2) was employed. Data were corrected for DMSO excluded volume effects as needed. All data were double-referenced for blank injections and reference surface using standard processing procedures and data processing and kinetic fitting were performed using Scrubber software, version 2.0c (BioLogic Software). Data were fitted using simple 1:1 binding model allowing for mass transport effects where appropriate.” left out

Binder | Kd
B25 | 0.685 nM

Reference: patent US20230220008A1 (Bicycle, published 2023)
